Results taken from PMC10397247.

Assays:
Experiment in all cases: two-hybrid library CCmax;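 note: natural log of median RNA to DNA barcode read ratio; higher means stronger binding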
4H454-AA = biological target: T1, 4H454-AA; details: mean of both orientations
T1 chain: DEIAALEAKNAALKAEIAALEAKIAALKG

4H2617-AA = biological target: T2, 4H2617-AA; details: mean of both orientations
T2 chain: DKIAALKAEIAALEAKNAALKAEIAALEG

4H2883-AA = biological target: T3, 4H2883-AA; details: mean of both orientations
T3 chain: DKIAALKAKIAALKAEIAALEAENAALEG

4H3921-AA = biological target: T4, 4H3921-AA; details: mean of both orientations
T4 chain: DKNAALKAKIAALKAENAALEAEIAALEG

4H2505-AA = biological target: T5, 4H2505-AA; details: mean of both orientations
T5 chain: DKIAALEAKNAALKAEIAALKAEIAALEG

4H566-AA = biological target: T6, 4H566-AA; details: mean of both orientations
T6 chain: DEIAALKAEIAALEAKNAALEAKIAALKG

4H3655-AA = biological target: T7, 4H3655-AA; details: mean of both orientations
T7 chain: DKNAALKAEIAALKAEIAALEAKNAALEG

4H678-AA = biological target: T8, 4H678-AA; details: mean of both orientations
T8 chain: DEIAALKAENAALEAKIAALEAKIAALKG

4H2754-AA = biological target: T9, 4H2754-AA; details: mean of both orientations
T9 chain: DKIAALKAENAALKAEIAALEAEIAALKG

4H993-AA = biological target: T10, 4H993-AA; details: mean of both orientations
T10 chain: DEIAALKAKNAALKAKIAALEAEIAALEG

4H429-AA = biological target: T11, 4H429-AA; details: mean of both orientations
T11 chain: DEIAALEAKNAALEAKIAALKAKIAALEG

4H881-AA = biological target: T12, 4H881-AA; details: mean of both orientations
T12 chain: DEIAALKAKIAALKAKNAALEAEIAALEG

4H2393-AA = biological target: T13, 4H2393-AA
T13 chain: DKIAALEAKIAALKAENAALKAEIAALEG

4H48-AA = biological target: T14, 4H48-AA; details: mean of both orientations
T14 chain: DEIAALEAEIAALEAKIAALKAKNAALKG

4H3606-AA = biological target: T15, 4H3606-AA; details: mean of both orientations
T15 chain: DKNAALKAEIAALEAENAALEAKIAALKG

4H3844-AA = biological target: T16, 4H3844-AA; details: mean of both orientations
T16 chain: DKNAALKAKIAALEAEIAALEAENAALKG

4H3627-AA = biological target: T17, 4H3627-AA; details: mean of both orientations
T17 chain: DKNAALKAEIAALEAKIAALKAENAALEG

4H2944-AA = biological target: T18, 4H2944-AA; details: mean of both orientations
T18 chain: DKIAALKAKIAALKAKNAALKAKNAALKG

4H342-AA = biological target: T19, 4H342-AA; details: mean of both orientations
T19 chain: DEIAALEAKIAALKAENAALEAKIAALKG

4H2277-AA = biological target: T20, 4H2277-AA
T20 chain: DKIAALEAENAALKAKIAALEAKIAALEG

4H780-AA = biological target: T21, 4H780-AA
T21 chain: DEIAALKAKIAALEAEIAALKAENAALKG

4H794-AA = biological target: T22, 4H794-AA; details: mean of both orientations
T22 chain: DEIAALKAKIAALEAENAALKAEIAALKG

4H2466-AA = biological target: T23, 4H2466-AA; details: mean of both orientations
T23 chain: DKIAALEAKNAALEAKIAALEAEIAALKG

4H2729-AA = biological target: T24, 4H2729-AA; details: mean of both orientations
T24 chain: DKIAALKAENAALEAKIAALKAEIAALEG

4H2949-AA = biological target: T25, 4H2949-AA; details: mean of both orientations
T25 chain: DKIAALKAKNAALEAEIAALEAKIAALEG

4H2575-AA = biological target: T26, 4H2575-AA; details: mean of both orientations
T26 chain: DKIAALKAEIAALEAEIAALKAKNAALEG

4H317-AA = biological target: T27, 4H317-AA; details: mean of both orientations
T27 chain: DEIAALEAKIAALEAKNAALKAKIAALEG

4H605-AA = biological target: T28, 4H605-AA; details: mean of both orientations
T28 chain: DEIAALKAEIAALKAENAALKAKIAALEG

4H2642-AA = biological target: T29, 4H2642-AA; details: mean of both orientations
T29 chain: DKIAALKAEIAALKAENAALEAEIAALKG

4H906-AA = biological target: T30, 4H906-AA; details: mean of both orientations
T30 chain: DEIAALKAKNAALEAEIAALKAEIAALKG

4H3427-AA = biological target: T31, 4H3427-AA; details: mean of both orientations
T31 chain: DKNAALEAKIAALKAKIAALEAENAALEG

4H335-AA = biological target: T32, 4H335-AA; details: mean of both orientations
T32 chain: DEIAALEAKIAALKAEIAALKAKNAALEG

4H2837-AA = biological target: T33, 4H2837-AA; details: mean of both orientations
T33 chain: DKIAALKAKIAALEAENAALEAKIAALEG

4H3112-AA = biological target: T34, 4H3112-AA; details: mean of both orientations
T34 chain: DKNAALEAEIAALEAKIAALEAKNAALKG

4H3343-AA = biological target: T35, 4H3343-AA; details: mean of both orientations
T35 chain: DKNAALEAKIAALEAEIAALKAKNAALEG

4H234-AA = biological target: T36, 4H234-AA; details: mean of both orientations
T36 chain: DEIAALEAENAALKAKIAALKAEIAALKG

4H717-AA = biological target: T37, 4H717-AA; details: mean of both orientations
T37 chain: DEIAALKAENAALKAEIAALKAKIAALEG

4H2354-AA = biological target: T38, 4H2354-AA; details: mean of both orientations
T38 chain: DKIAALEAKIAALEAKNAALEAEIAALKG

**Q.** Which results are given for DKIAALEAENAALKAKIAALEAKIAALEG [4H2277-AA]?
**A.** interaction score (4H454-AA): 1.29; interaction score (4H2617-AA): -1.68; interaction score (4H2883-AA): -1.6; interaction score (4H3921-AA): -1.56; interaction score (4H2505-AA): -0.635; interaction score (4H566-AA): -0.827; interaction score (4H3655-AA): -1.32; interaction score (4H678-AA): 0.351; interaction score (4H2754-AA): 0.512; interaction score (4H993-AA): 0.398; interaction score (4H429-AA): -0.713; interaction score (4H881-AA): -1.05; interaction score (4H2393-AA): -1.39; interaction score (4H48-AA): -1.36; interaction score (4H3606-AA): -1.85; interaction score (4H3844-AA): -1.39; interaction score (4H3627-AA): -1.28; interaction score (4H2944-AA): -1.56; interaction score (4H342-AA): -0.907; interaction score (4H2277-AA): 1.95; interaction score (4H780-AA): -1.36; interaction score (4H794-AA): -1.24; interaction score (4H2466-AA): -1.07; interaction score (4H2729-AA): 0.856; interaction score (4H2949-AA): 0.749; interaction score (4H2575-AA): -1.59; interaction score (4H317-AA): -1.02; interaction score (4H605-AA): -1.38; interaction score (4H2642-AA): -0.59; interaction score (4H906-AA): -1.51; interaction score (4H3427-AA): -1.51; interaction score (4H335-AA): -1.2; interaction score (4H2837-AA): -1.08; interaction score (4H3112-AA): -1.43; interaction score (4H3343-AA): -1.26; interaction score (4H234-AA): -0.0407; interaction score (4H717-AA): -0.927; interaction score (4H2354-AA): -1.26
